The record followed here is patent US8030025B2, “Antibodies directed to angiopoietin-1 and angiopoietin-2 and uses thereof” (Amgen Inc., dated 2011).

Experiment [1] addresses biotinylated human angiopoietin 1 (human, UniProt Q15389, biotin). The experiment is described as follows: HTRF neutralization; biotin-hAng1 vs huTie-2-Fc-APC. For orientation: Time-resolved FRET reads energy transfer from a long-lived donor to a nearby acceptor.
Experiment [2] has as its target biotinylated human angiopoietin 2 (human, UniProt O15123, biotin). Put plainly: HTRF neutralization; biotin-hAng2 vs huTie-2-Fc-APC.

The IC50 is the concentration needed to halve the response being measured. A higher IC50 goes with lower potency. One may read the IC90 as the concentration needed for an effect of 90%. A lower IC90 goes with an effect from little substance.

B1: H5L7 (antibody, V domains shown)
VH: EVQLVQSGGGVVQPGRSLRLSCAASGFTFSSYGMHWVRQAPGKGLEWVSYISSSGSTIYYADSVKGRFTISRDNAKNSLYLQMNSLRAEDTAVYYCARDLLDYDIWTGYGYWGQGTLVTVSS
VL: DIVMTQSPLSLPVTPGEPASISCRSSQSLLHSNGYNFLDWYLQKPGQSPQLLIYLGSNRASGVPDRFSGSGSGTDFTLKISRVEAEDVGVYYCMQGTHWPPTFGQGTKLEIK
In experiment [1], B1 showed an IC50 of 70 pM and an IC90 of 420 pM. In experiment [2], this molecule displayed an IC50 of 70 pM and a 90% effect concentration (IC90) of 230 pM.

B2: H4L2 (antibody, V domains shown)
VH: EVQLVQSGGGVVQPGRSLRLSCAASGFTFSSYGMHWVRQAPGKGLEWVSYISSSGSTIYYADSVKGRFTISRDNAKNSLYLQMNSLRAEDTAVYYCARDLLDYDLLTGYGYWGQGTLVTVSS
VL: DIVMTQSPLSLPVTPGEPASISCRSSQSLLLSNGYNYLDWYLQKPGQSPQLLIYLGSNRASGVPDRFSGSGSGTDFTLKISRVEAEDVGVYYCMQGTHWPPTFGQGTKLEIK
In experiment [1], B2 yielded an IC50 of 660 pM and an IC90 of 6800 pM. In addition, in experiment [2], the IC50 amounted to 60 pM and the IC90 came to 190 pM.

B3: H10L7 (antibody, V domains shown)
VH: EVQLVQSGGGVVQPGRSLRLSCAASGFTFSSYGMHWVRQAPGKGLEWVSYISSSGSTIYYADSVKGRFTISRDNAKNSLYLQMNSLRAEDTAVYYCARDLLDYDILTGYGLWGQGTLVTVSS
VL: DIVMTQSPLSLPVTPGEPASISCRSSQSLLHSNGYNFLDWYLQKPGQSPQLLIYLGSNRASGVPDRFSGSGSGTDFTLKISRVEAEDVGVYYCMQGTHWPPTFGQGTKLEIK
Consider B3, for which, in experiment [1], the IC50 is 150 pM and the IC90 was 2200 pM. In experiment [2], this molecule gave an IC50 of 60 pM and an IC90 of 190 pM.

B4: H5L4 (antibody, V domains shown)
VH: EVQLVQSGGGVVQPGRSLRLSCAASGFTFSSYGMHWVRQAPGKGLEWVSYISSSGSTIYYADSVKGRFTISRDNAKNSLYLQMNSLRAEDTAVYYCARDLLDYDIWTGYGYWGQGTLVTVSS
VL: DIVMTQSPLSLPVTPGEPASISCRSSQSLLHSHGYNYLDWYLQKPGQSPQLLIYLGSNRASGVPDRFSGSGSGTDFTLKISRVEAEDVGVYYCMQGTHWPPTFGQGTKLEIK
In experiment [1], B4 displayed an IC50 of 600 pM and an IC90 of 11000 pM. Further, in experiment [2], the IC50 is 70 pM and the IC90 stood at 210 pM.

B5: H4L7 (antibody, V domains shown)
VH: EVQLVQSGGGVVQPGRSLRLSCAASGFTFSSYGMHWVRQAPGKGLEWVSYISSSGSTIYYADSVKGRFTISRDNAKNSLYLQMNSLRAEDTAVYYCARDLLDYDLLTGYGYWGQGTLVTVSS
VL: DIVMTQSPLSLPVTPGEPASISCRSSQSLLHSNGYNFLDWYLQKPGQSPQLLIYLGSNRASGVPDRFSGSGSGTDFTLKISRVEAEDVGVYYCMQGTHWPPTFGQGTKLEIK
Turning to B5, the IC50 in experiment [1] came out at 230 pM; in experiment [2] it was 60 pM. Moreover, the IC90 is 2800 pM in experiment [1] and 220 pM in experiment [2].

B6: H2L7 (antibody, V domains shown)
VH: EVQLVQSGGGVVQPGRSLRLSCAASGFTFSSYGMHWVRQAPGKGLEWVSYISSSGSTIEYADSVKGRFTISRDNAKNSLYLQMNSLRAEDTAVYYCARDLLDYDILTGYGYWGQGTLVTVSS
VL: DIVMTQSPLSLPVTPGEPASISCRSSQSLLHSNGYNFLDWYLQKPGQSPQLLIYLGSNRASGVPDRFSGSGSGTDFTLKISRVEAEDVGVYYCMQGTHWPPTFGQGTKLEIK
For the molecule B6, in experiment [1], the IC50 was 330 pM and it took 3600 pM to reach the 90% level (IC90). Further, in experiment [2], the IC50 was determined as 60 pM and the IC90 amounted to 200 pM.

B7: H5L11 (antibody, V domains shown)
VH: EVQLVQSGGGVVQPGRSLRLSCAASGFTFSSYGMHWVRQAPGKGLEWVSYISSSGSTIYYADSVKGRFTISRDNAKNSLYLQMNSLRAEDTAVYYCARDLLDYDIWTGYGYWGQGTLVTVSS
VL: not shown
As for B7, the IC50 in experiment [1] turned out to be 970 pM; in experiment [2] it was 80 pM. Further, the IC90 in experiment [1] came out at 18000 pM; in experiment [2] it was 250 pM.

B8: H6L6 (antibody, V domains shown)
VH: EVQLVQSGGGVVQPGRSLRLSCAASGFTFSSYGMHWVRQAPGKGLEWVSYISSSGSTIYYADSVKGRFTISRDNAKNSLYLQMNSLRAEDTAVYYCARDLLDYDIYTGYGYWGQGTLVTVSS
VL: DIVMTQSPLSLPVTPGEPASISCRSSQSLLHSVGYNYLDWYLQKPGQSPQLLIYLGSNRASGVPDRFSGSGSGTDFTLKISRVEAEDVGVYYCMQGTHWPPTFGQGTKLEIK
As to B8, in experiment [1], half-maximal inhibition (IC50) required 660 pM and it took 10000 pM to reach the 90% level (IC90). In experiment [2], this molecule came in with an IC50 of 60 pM and an IC90 of 200 pM.

B9: H6L7 (antibody, V domains shown)
VH: EVQLVQSGGGVVQPGRSLRLSCAASGFTFSSYGMHWVRQAPGKGLEWVSYISSSGSTIYYADSVKGRFTISRDNAKNSLYLQMNSLRAEDTAVYYCARDLLDYDIYTGYGYWGQGTLVTVSS
VL: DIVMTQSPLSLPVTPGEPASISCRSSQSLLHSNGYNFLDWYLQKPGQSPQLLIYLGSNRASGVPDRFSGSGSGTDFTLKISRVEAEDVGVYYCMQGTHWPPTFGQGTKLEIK
In experiment [1], B9 registered an IC50 of 60 pM and an IC90 of 490 pM. In experiment [2], this molecule gave an IC50 of 60 pM and an IC90 of 190 pM.

B10: H5L1 (antibody, V domains shown)
VH: EVQLVQSGGGVVQPGRSLRLSCAASGFTFSSYGMHWVRQAPGKGLEWVSYISSSGSTIYYADSVKGRFTISRDNAKNSLYLQMNSLRAEDTAVYYCARDLLDYDIWTGYGYWGQGTLVTVSS
VL: not shown
B10 returned an IC50 in experiment [2] of 60 pM.

B11: H4L11 (antibody, V domains shown)
VH: EVQLVQSGGGVVQPGRSLRLSCAASGFTFSSYGMHWVRQAPGKGLEWVSYISSSGSTIYYADSVKGRFTISRDNAKNSLYLQMNSLRAEDTAVYYCARDLLDYDLLTGYGYWGQGTLVTVSS
VL: not shown
In the case of B11, the IC50 in experiment [1] is 7300 pM; in experiment [2], 50 pM. The IC90 in experiment [1] came out at 107000 pM; in experiment [2], 170 pM.

B12: H4L13 (antibody, V domains shown)
VH: EVQLVQSGGGVVQPGRSLRLSCAASGFTFSSYGMHWVRQAPGKGLEWVSYISSSGSTIYYADSVKGRFTISRDNAKNSLYLQMNSLRAEDTAVYYCARDLLDYDLLTGYGYWGQGTLVTVSS
VL: not shown
As for B12, in experiment [1], the IC50 was 150 pM and it took 1600 pM to reach the 90% level (IC90). In experiment [2], the IC50 was found to be 60 pM and the 90% effect level (IC90) was put at 190 pM.

B13: H5L9 (antibody, V domains shown)
VH: EVQLVQSGGGVVQPGRSLRLSCAASGFTFSSYGMHWVRQAPGKGLEWVSYISSSGSTIYYADSVKGRFTISRDNAKNSLYLQMNSLRAEDTAVYYCARDLLDYDIWTGYGYWGQGTLVTVSS
VL: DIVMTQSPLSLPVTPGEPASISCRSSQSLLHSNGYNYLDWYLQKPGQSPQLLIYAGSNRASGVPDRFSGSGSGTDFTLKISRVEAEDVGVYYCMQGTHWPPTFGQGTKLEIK
For B13, in experiment [1], the IC50 is 18000 pM and the IC90 is 181000 pM. In experiment [2], the IC50 stood at 190 pM and it took 1570 pM to reach the 90% level (IC90).

B14: H4L6 (antibody, V domains shown)
VH: EVQLVQSGGGVVQPGRSLRLSCAASGFTFSSYGMHWVRQAPGKGLEWVSYISSSGSTIYYADSVKGRFTISRDNAKNSLYLQMNSLRAEDTAVYYCARDLLDYDLLTGYGYWGQGTLVTVSS
VL: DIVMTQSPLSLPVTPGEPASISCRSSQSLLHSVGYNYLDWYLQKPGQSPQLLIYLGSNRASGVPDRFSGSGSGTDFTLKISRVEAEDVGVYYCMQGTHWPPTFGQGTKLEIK
As for B14, in experiment [1], the IC50 is 740 pM and the 90% effect level (IC90) was put at 15000 pM. In experiment [2], this molecule yielded an IC50 of 60 pM and an IC90 of 200 pM.

B15: H5L12 (antibody, V domains shown)
VH: EVQLVQSGGGVVQPGRSLRLSCAASGFTFSSYGMHWVRQAPGKGLEWVSYISSSGSTIYYADSVKGRFTISRDNAKNSLYLQMNSLRAEDTAVYYCARDLLDYDIWTGYGYWGQGTLVTVSS
VL: not shown
B15 gave an IC50 in experiment [2] of 70 pM. In other words, the picomolar range.

B16: H5L8 (antibody, V domains shown)
VH: EVQLVQSGGGVVQPGRSLRLSCAASGFTFSSYGMHWVRQAPGKGLEWVSYISSSGSTIYYADSVKGRFTISRDNAKNSLYLQMNSLRAEDTAVYYCARDLLDYDIWTGYGYWGQGTLVTVSS
VL: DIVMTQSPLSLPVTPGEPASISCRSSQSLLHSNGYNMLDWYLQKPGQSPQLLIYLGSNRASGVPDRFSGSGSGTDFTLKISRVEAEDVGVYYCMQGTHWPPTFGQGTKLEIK
With B16, the IC50 is 370 pM in experiment [1] and 70 pM in experiment [2]. Moreover, the IC90 in experiment [1] is 3600 pM; in experiment [2] it was 210 pM.

B17: H5L6 (antibody, V domains shown)
VH: EVQLVQSGGGVVQPGRSLRLSCAASGFTFSSYGMHWVRQAPGKGLEWVSYISSSGSTIYYADSVKGRFTISRDNAKNSLYLQMNSLRAEDTAVYYCARDLLDYDIWTGYGYWGQGTLVTVSS
VL: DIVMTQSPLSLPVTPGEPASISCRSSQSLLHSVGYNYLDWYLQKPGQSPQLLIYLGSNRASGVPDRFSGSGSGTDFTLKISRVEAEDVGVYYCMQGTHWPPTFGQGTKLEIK
With B17, the values for the IC50 in experiment [1] and in experiment [2] were 320 pM and 70 pM, respectively. For the same molecule, the IC90 in experiment [1] turned out to be 3600 pM; in experiment [2], 230 pM.

B18: H6L8 (antibody, V domains shown)
VH: EVQLVQSGGGVVQPGRSLRLSCAASGFTFSSYGMHWVRQAPGKGLEWVSYISSSGSTIYYADSVKGRFTISRDNAKNSLYLQMNSLRAEDTAVYYCARDLLDYDIYTGYGYWGQGTLVTVSS
VL: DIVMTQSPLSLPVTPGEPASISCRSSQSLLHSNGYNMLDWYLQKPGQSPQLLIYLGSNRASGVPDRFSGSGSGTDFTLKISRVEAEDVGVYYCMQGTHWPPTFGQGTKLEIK
In experiment [1], B18 returned an IC50 of 570 pM and an IC90 of 7700 pM. Besides, in experiment [2], the IC50 amounted to 50 pM and the IC90 worked out at 190 pM.

B19: H4L12 (antibody, V domains shown)
VH: EVQLVQSGGGVVQPGRSLRLSCAASGFTFSSYGMHWVRQAPGKGLEWVSYISSSGSTIYYADSVKGRFTISRDNAKNSLYLQMNSLRAEDTAVYYCARDLLDYDLLTGYGYWGQGTLVTVSS
VL: not shown
Regarding B19, in experiment [1], it took 630 pM to reach half-maximal inhibition (IC50) and the 90% effect level (IC90) was put at 8700 pM. In experiment [2], this molecule displayed an IC50 of 60 pM and an IC90 of 210 pM.

B20: H3L7 (antibody, V domains shown)
VH: EVQLVQSGGGVVQPGRSLRLSCAASGFTFSSYGMHWVRQAPGKGLEWVSYISSSGSTIQYADSVKGRFTISRDNAKNSLYLQMNSLRAEDTAVYYCARDLLDYDILTGYGYWGQGTLVTVSS
VL: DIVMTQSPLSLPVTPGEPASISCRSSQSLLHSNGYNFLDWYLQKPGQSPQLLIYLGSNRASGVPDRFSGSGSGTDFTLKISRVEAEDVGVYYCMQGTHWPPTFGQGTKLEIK
In experiment [1], B20 showed an IC50 of 580 pM and an IC90 of 7100 pM. In experiment [2], this molecule returned an IC50 of 60 pM and a 90% effect concentration (IC90) of 230 pM.

B21: H11L7 (antibody, V domains shown)
VH: EVQLVQSGGGVVQPGRSLRLSCAASGFTFSSYGMHWVRQAPGKGLEWVSYISSSGSTIYYADSVKGRFTISRDNAKNSLYLQMNSLRAEDTAVYYCARDLLDYDILTGYGMWGQGTLVTVSS
VL: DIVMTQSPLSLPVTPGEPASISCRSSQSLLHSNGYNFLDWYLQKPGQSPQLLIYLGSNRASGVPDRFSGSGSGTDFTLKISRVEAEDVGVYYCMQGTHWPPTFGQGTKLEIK
In the case of B21, in experiment [1], the IC50 was determined as 150 pM and the 90% effect level (IC90) was put at 1200 pM. In experiment [2], this molecule registered an IC50 of 60 pM and an IC90 of 200 pM.

B22: H4L4 (antibody, V domains shown)
VH: EVQLVQSGGGVVQPGRSLRLSCAASGFTFSSYGMHWVRQAPGKGLEWVSYISSSGSTIYYADSVKGRFTISRDNAKNSLYLQMNSLRAEDTAVYYCARDLLDYDLLTGYGYWGQGTLVTVSS
VL: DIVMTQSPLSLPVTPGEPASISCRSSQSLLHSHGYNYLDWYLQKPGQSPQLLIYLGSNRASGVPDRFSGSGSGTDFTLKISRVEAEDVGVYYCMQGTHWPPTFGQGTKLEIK
In experiment [1], B22 registered an IC50 of 870 pM and an IC90 of 8200 pM. In experiment [2], this molecule displayed an IC50 of 60 pM and an IC90 of 160 pM.
